Measurements taken from paper PMC11367474, “Two-metal ion mechanism of DNA cleavage by activated, filamentous SgrAI”.

Legend:
SgrAI K242A = molecular target: T1, SgrAI K242A (UniProt Q9F6L0 1-339, K242A;L336K); assay: cryo-EM structure (3.3 A); Mg2+ in sites A and B; filament; DNA uncleaved; 30 min at room temperature; Cryo-EM samples: buffer containing MgCl2, room temperature (30 min for K242A, 1.5 h for WT); full buffer, salt and pH not in the material; conditions: protein: recombinant; tags: His tag implied (HisTrap purification); chain copies: 2; blunt
T1 sequence: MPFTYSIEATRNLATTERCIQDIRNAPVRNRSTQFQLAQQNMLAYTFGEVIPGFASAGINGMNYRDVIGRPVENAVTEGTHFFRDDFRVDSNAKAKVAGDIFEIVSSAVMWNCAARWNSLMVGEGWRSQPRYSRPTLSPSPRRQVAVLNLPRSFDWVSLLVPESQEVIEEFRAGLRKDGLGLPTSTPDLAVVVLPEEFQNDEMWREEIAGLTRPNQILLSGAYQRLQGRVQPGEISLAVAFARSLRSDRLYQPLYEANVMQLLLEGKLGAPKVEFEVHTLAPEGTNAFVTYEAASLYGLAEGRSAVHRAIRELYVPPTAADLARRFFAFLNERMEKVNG

SgrAI WT = molecular target: T2, SgrAI WT (UniProt Q9F6L0 1-339); assay: cryo-EM structure (3.1 A); Mg2+ in sites A and B; filament; DNA cleaved at the scissile phosphate during 1.5 h incubation (product complex); Cryo-EM samples: buffer containing MgCl2, room temperature (30 min for K242A, 1.5 h for WT); full buffer, salt and pH not in the material; conditions: protein: recombinant; tags: His tag implied (HisTrap purification); chain copies: 2; blunt
T2 sequence: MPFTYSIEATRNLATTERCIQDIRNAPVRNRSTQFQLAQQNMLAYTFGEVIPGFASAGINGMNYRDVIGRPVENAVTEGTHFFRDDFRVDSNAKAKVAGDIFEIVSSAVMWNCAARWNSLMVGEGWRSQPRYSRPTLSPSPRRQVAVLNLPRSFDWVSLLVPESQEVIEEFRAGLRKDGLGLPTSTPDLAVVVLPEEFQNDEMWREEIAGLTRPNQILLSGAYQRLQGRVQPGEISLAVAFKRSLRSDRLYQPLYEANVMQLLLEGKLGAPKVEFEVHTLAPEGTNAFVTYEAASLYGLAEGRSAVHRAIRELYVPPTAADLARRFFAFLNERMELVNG

B1: 40-1 (dsDNA)
DNA 1: GATGCGTGGGTCTTCACACCGGTGGATGCGTGGGTCTTCA
DNA 2: TGAAGACCCACGCATCCACCGGTGTGAAGACCCACGCATC
- binding result (SgrAI K242A): binds
- binding result (SgrAI WT): binds
